Results on one molecule are retold here after publication PMC5470993 (2017).

The assay concerns the target Rac1 (Homo sapiens, UniProt P63000). Description: GST pull-down.

B1: PAK1 RBD (protein)
chain: KKEKERPEISLPSDFEHTIHVGFDAVTGEFTGMPEQWARLLQTSNITKSEQKKNPQAVLDVLEFYNSKKTSNSQKYMSFTDKSA
For orientation: Kd means the free concentration of one partner at which half of the binding sites on the other are occupied at equilibrium, for simple one-to-one binding. Read a high Kd as lower affinity. Consider B1, for which the Kd was found to be 243 nM.
